Series [1] deals with T1, TUT4 (ZCCHC11);LIN28A (Homo sapiens;Homo sapiens, UniProt Q5TAX3;Q9H9Z2 254-1315;1-209, |).
T1 sequence 1: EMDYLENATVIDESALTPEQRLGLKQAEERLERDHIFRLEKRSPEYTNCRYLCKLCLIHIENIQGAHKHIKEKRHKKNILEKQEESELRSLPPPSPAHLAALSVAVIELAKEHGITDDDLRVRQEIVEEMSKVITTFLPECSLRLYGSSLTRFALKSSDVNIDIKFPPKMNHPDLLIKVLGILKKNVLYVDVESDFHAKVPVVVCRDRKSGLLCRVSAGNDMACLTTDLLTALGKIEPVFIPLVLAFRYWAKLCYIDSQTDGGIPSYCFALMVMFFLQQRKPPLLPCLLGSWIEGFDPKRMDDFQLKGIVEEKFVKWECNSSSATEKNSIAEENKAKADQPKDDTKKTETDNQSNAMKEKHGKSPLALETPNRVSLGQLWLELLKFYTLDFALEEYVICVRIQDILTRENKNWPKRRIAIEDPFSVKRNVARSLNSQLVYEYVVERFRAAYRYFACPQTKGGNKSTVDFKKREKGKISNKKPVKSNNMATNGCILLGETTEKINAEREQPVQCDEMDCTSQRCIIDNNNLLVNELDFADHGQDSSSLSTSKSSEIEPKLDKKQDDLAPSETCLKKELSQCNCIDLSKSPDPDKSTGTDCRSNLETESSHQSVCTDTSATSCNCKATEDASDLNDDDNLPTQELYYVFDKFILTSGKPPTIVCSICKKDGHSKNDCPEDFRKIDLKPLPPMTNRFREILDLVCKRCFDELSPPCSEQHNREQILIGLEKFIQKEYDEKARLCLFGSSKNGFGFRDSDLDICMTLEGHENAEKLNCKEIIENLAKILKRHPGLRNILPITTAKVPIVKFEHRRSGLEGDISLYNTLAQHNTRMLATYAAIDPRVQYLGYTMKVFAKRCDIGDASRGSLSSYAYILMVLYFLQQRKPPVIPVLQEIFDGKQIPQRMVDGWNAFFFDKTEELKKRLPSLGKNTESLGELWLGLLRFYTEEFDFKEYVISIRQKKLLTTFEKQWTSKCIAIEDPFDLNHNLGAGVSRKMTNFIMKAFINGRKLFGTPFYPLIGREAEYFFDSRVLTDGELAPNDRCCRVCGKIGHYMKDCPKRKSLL
T1 sequence 2: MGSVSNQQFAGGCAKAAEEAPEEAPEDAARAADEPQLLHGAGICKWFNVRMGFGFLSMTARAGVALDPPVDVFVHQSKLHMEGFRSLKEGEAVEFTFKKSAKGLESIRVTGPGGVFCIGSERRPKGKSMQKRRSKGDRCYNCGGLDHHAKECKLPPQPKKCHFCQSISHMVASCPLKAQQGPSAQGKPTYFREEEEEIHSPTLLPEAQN
Put plainly: cryo-EM; Zn2+; ternary capture state, 3.68 A; EMSA: 20 mM HEPES pH 7.8, 100 mM NaCl, 2 mM CaCl2, 50 uM ZnCl2, 5% glycerol, 5 mM DTT, 0.5 mM UTP, RNase inhibitor, on ice 30 min; 0.1 uM RNA, 0.2 uM TUT, 0.3 uM LIN28A; native gel in 1x TBE at 4 C. Particulars: protein: recombinant;recombinant; tags: N-term His6-GST (TEV cleavable), C-term twin-Strep;N-term His6-GST fusion; copies: 1;1; hairpin, 1 nt 3' overhang.

The next series deals with TUT7 (ZCCHC6);LIN28A (Homo sapiens;Homo sapiens, UniProt Q5VYS8;Q9H9Z2 1-1495;1-209, |). The experiment in a line: cryo-EM; Zn2+; ternary conformation I, 3.81 A; EMSA: 20 mM HEPES pH 7.8, 100 mM NaCl, 2 mM CaCl2, 50 uM ZnCl2, 5% glycerol, 5 mM DTT, 0.5 mM UTP, RNase inhibitor, on ice 30 min; 0.1 uM RNA, 0.2 uM TUT, 0.3 uM LIN28A; native gel in 1x TBE at 4 C. Particulars: protein: recombinant;recombinant; tags: N-term His6-GST (TEV cleavable), C-term twin-Strep;N-term His6-GST fusion; copies: 1;1; hairpin, 1 nt 3' overhang.
Sequence of TUT7 (ZCCHC6);LIN28A (Q5VYS8 whole entry, the tested form may be a part, one chain of several): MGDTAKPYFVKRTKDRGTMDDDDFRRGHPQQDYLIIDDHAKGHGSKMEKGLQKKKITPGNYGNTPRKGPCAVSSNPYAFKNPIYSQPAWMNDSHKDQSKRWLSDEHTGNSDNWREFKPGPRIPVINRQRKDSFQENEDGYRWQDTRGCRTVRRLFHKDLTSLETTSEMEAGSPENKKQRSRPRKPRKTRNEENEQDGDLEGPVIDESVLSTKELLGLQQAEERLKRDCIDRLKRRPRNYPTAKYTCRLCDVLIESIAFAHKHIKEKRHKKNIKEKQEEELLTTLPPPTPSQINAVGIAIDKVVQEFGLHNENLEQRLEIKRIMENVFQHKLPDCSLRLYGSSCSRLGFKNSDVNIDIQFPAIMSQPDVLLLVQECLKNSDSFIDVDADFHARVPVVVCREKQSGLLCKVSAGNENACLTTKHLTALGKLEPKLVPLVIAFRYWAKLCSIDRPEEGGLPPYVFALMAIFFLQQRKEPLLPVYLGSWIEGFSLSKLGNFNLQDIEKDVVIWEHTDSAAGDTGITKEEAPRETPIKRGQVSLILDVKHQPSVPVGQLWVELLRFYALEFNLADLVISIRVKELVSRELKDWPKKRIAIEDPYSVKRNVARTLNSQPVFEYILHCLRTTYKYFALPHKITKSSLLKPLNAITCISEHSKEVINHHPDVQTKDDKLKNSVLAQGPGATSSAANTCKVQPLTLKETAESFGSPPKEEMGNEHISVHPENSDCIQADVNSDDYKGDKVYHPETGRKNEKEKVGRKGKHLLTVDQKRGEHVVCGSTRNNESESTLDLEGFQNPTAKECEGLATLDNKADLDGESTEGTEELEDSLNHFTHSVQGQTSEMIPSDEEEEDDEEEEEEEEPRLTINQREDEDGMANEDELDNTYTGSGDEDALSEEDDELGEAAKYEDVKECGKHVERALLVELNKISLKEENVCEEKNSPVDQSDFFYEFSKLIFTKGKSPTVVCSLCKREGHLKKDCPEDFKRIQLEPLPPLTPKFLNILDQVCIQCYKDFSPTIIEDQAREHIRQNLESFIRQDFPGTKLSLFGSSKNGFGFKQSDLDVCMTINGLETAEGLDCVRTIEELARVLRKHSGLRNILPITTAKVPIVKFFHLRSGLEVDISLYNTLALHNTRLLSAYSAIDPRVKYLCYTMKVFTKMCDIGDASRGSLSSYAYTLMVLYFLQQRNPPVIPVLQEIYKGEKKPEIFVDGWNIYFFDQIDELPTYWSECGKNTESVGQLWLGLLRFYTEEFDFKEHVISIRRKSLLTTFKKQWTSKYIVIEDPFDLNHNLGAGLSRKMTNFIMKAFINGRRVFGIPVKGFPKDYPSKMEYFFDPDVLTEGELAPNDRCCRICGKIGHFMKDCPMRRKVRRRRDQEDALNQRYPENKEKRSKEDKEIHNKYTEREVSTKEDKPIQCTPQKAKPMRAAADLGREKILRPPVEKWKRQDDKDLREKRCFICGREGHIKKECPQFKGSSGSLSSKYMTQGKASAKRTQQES

For series [2], the target named is T1, TUT4 (ZCCHC11);LIN28A. The experiment in a line: EMSA; 0.5 mM UTP, Ca2+, Zn2+; higher-order assemblies, concentration dependent; EMSA: 20 mM HEPES pH 7.8, 100 mM NaCl, 2 mM CaCl2, 50 uM ZnCl2, 5% glycerol, 5 mM DTT, 0.5 mM UTP, RNase inhibitor, on ice 30 min; 0.1 uM RNA, 0.2 uM TUT, 0.3 uM LIN28A; native gel in 1x TBE at 4 C. Particulars: protein: recombinant;recombinant; tags: N-term His6-GST (TEV cleavable), C-term twin-Strep;N-term His6-GST fusion; copies: 1;1; label: 3' CY dye; hairpin, 1 nt 3' overhang.

For series [3], the target named is T2, TUT4 K919/K920 mutant (ZK1);LIN28A (Homo sapiens;Homo sapiens, UniProt Q5TAX3;Q9H9Z2 254-1315;1-209, K919A;K920A|).
T2 sequence 1: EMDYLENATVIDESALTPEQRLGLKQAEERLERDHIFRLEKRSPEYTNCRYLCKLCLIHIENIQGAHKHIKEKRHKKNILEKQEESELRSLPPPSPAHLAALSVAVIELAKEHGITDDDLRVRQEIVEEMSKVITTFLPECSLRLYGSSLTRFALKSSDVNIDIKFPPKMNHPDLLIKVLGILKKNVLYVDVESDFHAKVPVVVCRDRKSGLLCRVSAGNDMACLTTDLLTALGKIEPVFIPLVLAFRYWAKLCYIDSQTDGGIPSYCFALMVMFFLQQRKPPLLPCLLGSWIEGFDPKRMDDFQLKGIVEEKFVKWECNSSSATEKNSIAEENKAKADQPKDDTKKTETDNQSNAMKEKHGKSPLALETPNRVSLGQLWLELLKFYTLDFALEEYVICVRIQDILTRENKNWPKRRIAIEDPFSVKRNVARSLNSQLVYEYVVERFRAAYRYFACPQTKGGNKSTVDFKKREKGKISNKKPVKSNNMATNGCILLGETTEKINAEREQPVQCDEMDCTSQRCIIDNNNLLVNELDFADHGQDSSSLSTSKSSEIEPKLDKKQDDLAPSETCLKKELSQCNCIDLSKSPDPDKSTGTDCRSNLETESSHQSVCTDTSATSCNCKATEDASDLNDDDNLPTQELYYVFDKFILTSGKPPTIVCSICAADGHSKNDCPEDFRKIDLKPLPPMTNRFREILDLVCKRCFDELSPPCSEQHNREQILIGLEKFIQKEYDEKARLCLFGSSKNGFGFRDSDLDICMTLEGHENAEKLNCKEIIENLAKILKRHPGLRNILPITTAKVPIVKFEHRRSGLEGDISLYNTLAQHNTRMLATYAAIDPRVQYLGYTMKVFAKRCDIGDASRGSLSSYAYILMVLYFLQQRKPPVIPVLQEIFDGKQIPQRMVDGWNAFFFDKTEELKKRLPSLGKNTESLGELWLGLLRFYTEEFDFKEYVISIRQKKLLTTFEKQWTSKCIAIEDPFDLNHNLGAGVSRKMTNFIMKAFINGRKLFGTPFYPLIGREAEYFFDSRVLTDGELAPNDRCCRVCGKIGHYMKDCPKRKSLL
T2 sequence 2: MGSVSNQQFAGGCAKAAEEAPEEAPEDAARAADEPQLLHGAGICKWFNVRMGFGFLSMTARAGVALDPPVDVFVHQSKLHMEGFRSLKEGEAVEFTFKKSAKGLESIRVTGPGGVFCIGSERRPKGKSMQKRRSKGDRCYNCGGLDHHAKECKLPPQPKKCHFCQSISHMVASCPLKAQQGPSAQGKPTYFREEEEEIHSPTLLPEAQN
The experiment in a line: EMSA; 0.5 mM UTP, Ca2+, Zn2+; higher-order assemblies seen; EMSA: 20 mM HEPES pH 7.8, 100 mM NaCl, 2 mM CaCl2, 50 uM ZnCl2, 5% glycerol, 5 mM DTT, 0.5 mM UTP, RNase inhibitor, on ice 30 min; 0.1 uM RNA, 0.2 uM TUT, 0.3 uM LIN28A; native gel in 1x TBE at 4 C. The following applies: protein: recombinant;recombinant; tags: N-term His6-GST (TEV cleavable), C-term twin-Strep;N-term His6-GST fusion; copies: 1;1; label: 3' CY dye; hairpin, 1 nt 3' overhang.

B1: pre-let-7g (structured_RNA)
RNA: UGAGGUAGUAGUUUGUACAGUUUGAGGGUCUAUGAUACCACCCGGUACAGGAGAUAACUGUACAGGCCACUGCCUUGC
Take B1: the binding result with TUT4 (ZCCHC11);LIN28A [1] and in the series with TUT7 (ZCCHC6);LIN28A was “binds” each time.

B2: pre-let-7g_3'CY (structured_RNA)
RNA: UGAGGUAGUAGUUUGUACAGUUUGAGGGUCUAUGAUACCACCCGGUACAGGAGAUAACUGUACAGGCCACUGCCUUGC
On to B2, for which the binding result (with TUT4 (ZCCHC11);LIN28A [2]; in series [3]) was “binds” in each case.

(Values after publication PMC11402785, “Structural basis for activity switching in polymerases determining the fate of let-7 pre-miRNAs” (Nature Structural & Molecular Biology, 2024).)
